Data published in patent publication US20210269525A1 (BIOCYTOGEN PHARMACEUTICALS BEIJING, published 2021).
Changes are numbered by the printed parent chain.

T1: Cynomolgus CD3 epsilon Protein, His Tag (Acrobiosystems, Cat #CDE-05226) (cynomolgus (Macaca fascicularis), UniProt Q95LI5 22-117)
T1 construct: also called monkey CD3e; not shown: His tag
T1 sequence: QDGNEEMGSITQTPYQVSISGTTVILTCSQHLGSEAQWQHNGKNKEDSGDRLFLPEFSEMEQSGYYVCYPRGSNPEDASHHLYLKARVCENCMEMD

B1: 10A4-H2K2-IgG1-LALA (antibody, V domains shown)
VH: QVQLVQSGAEVKKPGASVKISCKASGYTFTSYYIHWVRQAPGQRLEFIGWIYPGNVNAKYNEKFKGRATITTDKSASTAYMELSSLRSEDTAVYYCAIKGGNYDWGQGTLVTVSS
VL: DVVMTQSPLSLPVTLGQPASISCQSSQSLLDSDGKTYLNWLQQRPGQSPRRLIYLVSKLGSGVPDRFSGSGSGTDFTLKISRVEAEDVGVYYCWQGTHFPRTFGGGTKLEIK
notes: Humanized; human IgG1 with LALA mutations; also called H2K2 (humanized 10A4)
B2: 10A4-H3K1-IgG1-LALA (antibody, V domains shown)
VH: B1 VH with A40R, I70L, Y95F
VL: B1 VL with L109V
notes: Humanized; human IgG1 with LALA mutations; also called H3K1 (humanized 10A4)
B3: 10A4-H3K2-IgG1-LALA (antibody, V domains shown)
VH: B1 VH with A40R, I70L, Y95F
VL: B1 VL
notes: Humanized; human IgG1 with LALA mutations; also called H3K2 (humanized 10A4)
B4: 10A4-H3K3-IgG1-LALA (antibody, V domains shown)
VH: B1 VH with A40R, I70L, Y95F
VL: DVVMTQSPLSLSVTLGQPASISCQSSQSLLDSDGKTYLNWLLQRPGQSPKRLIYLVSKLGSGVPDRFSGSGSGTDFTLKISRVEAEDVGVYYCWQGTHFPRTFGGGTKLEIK
notes: Humanized; human IgG1 with LALA mutations; also called H3K3 (humanized 10A4)
B5: 10A4-H4K1-IgG1-LALA (antibody, V domains shown)
VH: B1 VH with V5Q, K19R, A40R, R44G, I70L, Y95F
VL: B1 VL with L109V
notes: Humanized; human IgG1 with LALA mutations; also called H4K1 (humanized 10A4)
B6: 10A4-H4K2-IgG1-LALA (antibody, V domains shown)
VH: B1 VH with V5Q, K19R, A40R, R44G, I70L, Y95F
VL: B1 VL
notes: Humanized; human IgG1 with LALA mutations; also called H4K2 (humanized 10A4)
B7: 10A4-H4K3-IgG1-LALA (antibody, V domains shown)
VH: B1 VH with V5Q, K19R, A40R, R44G, I70L, Y95F
VL: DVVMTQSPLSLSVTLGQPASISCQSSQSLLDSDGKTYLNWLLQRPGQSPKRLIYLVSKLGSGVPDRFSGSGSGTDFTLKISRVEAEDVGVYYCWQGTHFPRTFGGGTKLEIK
notes: Humanized; human IgG1 with LALA mutations; also called H4K3 (humanized 10A4)
B8: 1B1-H3K3-IgG1-LALA (antibody, V domains shown)
VH: QVQLVQSGAEVKKPGASVKLSCKASGYTFTSYWMHWVRQRHGQGLEWIGNIYPDSGTTNYGEKFKTRVTLTVDTSTSTAYMELSSLRSEDTAVYYCTRDTSGQYYFDYWGQGTLVTVSS
VL: DIVMTQSPDSLAVSAGERVTMNCKSSQSLLNSRTRKNYLAWYQHKPGQSPKLLIYWASTRESGVPDRFSGSGSGTDFTLTISSVQAEDVAVYYCVQSFSLRAFGGGTKLEIK
notes: Humanized; human IgG1 with LALA mutations; also called H3K3 (humanized 1B1)

Biological target: T2, human CD3e (T-cell surface glycoprotein CD3 epsilon chain) (human, UniProt P07766 23-207)
Assay: cell-based or functional assay

Row | Binder | EC50, luciferase of Jurkat-Luc-NFAT cells; antibody from supernatant | EC50, luciferase of Jurkat-Luc-NFAT cells; purified antibody
1 | B1 | 0.247 mg/L | 0.263 mg/L
2 | B2 | 0.198 mg/L | –
3 | B3 | 0.205 mg/L | –
4 | B4 | 0.475 mg/L | –
5 | B5 | 0.234 mg/L | –
6 | B6 | 0.253 mg/L | –
7 | B7 | 0.477 mg/L | –

Biological target: T3, Histidine-tagged human CD3e protein (human, UniProt P07766 23-126)
T3 construct: also called hCD3e-His; not shown: His tag
Assay: SPR (Biacore), human CD3e

Row | Binder | Kd | koff | kon
8 | B1 | 1.96 nM | 0.000134 s⁻¹ | 68400 M⁻¹ s⁻¹
9 | B2 | 2.12 nM | 0.00014 s⁻¹ | 65900 M⁻¹ s⁻¹
10 | B3 | 2.02 nM | 0.000126 s⁻¹ | 62100 M⁻¹ s⁻¹
11 | B4 | 1.73 nM | 0.000107 s⁻¹ | 62100 M⁻¹ s⁻¹
12 | B5 | 1.31 nM | 8.91e-05 s⁻¹ | 68100 M⁻¹ s⁻¹
13 | B6 | 1.6 nM | 0.000103 s⁻¹ | 64100 M⁻¹ s⁻¹
14 | B7 | 1.05 nM | 6.33e-05 s⁻¹ | 60300 M⁻¹ s⁻¹

Biological target: T3, Histidine-tagged human CD3e protein
Assay: SPR (Biacore), human CD3e
Remark: another data set of the same source

Row | Binder | Kd | koff | kon
15 | B8 | 0.718 nM | 0.000501 s⁻¹ | 698000 M⁻¹ s⁻¹

Biological target: T1, Cynomolgus CD3 epsilon Protein, His Tag …
Assay: SPR (Biacore), cynomolgus CD3e His tag
Procedure: The binding affinity of the anti-hCD3e antibodies with monkey CD3e (Cynomolgus CD3 epsilon Protein (SEQ ID NO: 39 AA Gln 22-Asp 117), His Tag, Acrobiosystems, Cat #CDE-05226) were also measured using surface plasmon resonance (SPR) using Biacore (Biacore, INC, Piscataway N.J.) by the methods as described in the examples.

Row | Binder | Kd | koff | kon
16 | B1 | 8.21 nM | 0.000411 s⁻¹ | 50100 M⁻¹ s⁻¹

Biological target: T2, human CD3e (T-cell surface glycoprotein …)
Assay: flow cytometry, human PBMC, antibody 1 ug/mL, anti-human IgG Fc-Alexa Fluor647 (1:500), anti-hTcRβ-PerCP (1:30)
Procedure: (§1) PBMC cells were collected from a human subject. After being thawed, the cells were cultured for 3-4 hours. The medium was then discarded, and the cells were resuspended in phosphate-buffered saline (PBS). The cell concentration was then adjusted to 2×10⁶/25 μl PBS.
(§2) A 96-well plate was prepared. 25 ul of cell suspension was added to each well. […] The cells and the antibodies were incubated. After centrifuge, the residues were discarded. The samples were washed again. 25 ul of PBS was then added to each well to resuspend cells.
(§3) Anti-human IgG Fc-Alexa Fluror647 (1:500) and anit-hTcRβ PerCP (1:30) were then added to each well. The cells and the antibodies were incubated and then the cells were washed again by PBS. 300 ul of PBS was then added to each well to resuspend the cells. FACS was performed.

Row | Binder | upper left quadrant, percent of cells AF647+ / hTcRβ-PerCP- | upper right quadrant, percent of cells AF647+ / hTcRβ-PerCP+
17 | B2 | 14.5% | 75%
18 | B3 | 12.4% | 75.8%
19 | B4 | 14.3% | 74.7%
20 | B5 | 12.4% | 76.8%
21 | B6 | 15% | 74.4%
22 | B7 | 11.5% | 76.6%

Biological target: T2, human CD3e (T-cell surface glycoprotein …)
Assay: flow cytometry, human PBMC, antibody 1 µg/mL, anti-human IgG Fc-Alexa Fluor647 (1:500), anti-hTcRβ-PerCP (1:30)
Procedure: as §1, §2, §3

Row | Binder | upper left quadrant, percent of cells AF647+ / hTcRβ-PerCP- | upper right quadrant, percent of cells AF647+ / hTcRβ-PerCP+
23 | B8 | 11.6% | 58.1%

Biological target: T2, human CD3e (T-cell surface glycoprotein …)
Assay: flow cytometry, human PBMC, antibody 10 µg/mL, anti-human IgG Fc-Alexa Fluor647 (1:500), anti-hTcRβ-PerCP (1:30)
Procedure: as §1
A 96-well plate was prepared. 25 ul of cell suspension was added to each well. Anti-hCD3e antibodies with different combinations of humanized 1B1 heavy chain variants and humanized 1B1 light chain variants were diluted to 20 ug/ml (2×) in PBS, and were added to the 96-well plate. The cells and the antibodies were incubated. After centrifuge, the residues were discarded. The samples were washed again. 25 ul of PBS was then added to each well to resuspend cells.
as §3

Row | Binder | upper left quadrant, percent of cells AF647+ / hTcRβ-PerCP- | upper right quadrant, percent of cells AF647+ / hTcRβ-PerCP+
24 | B8 | 9.61% | 63.7%

Biological target: T2, human CD3e (T-cell surface glycoprotein …)
Assay: flow cytometry, human PBMC, antibody 0.1 ug/mL, anti-human IgG Fc-Alexa Fluor647 (1:500), anti-hTcRβ-PerCP (1:30)
Procedure: as §1, §2, §3

Row | Binder | upper left quadrant, percent of cells AF647+ / hTcRβ-PerCP- | upper right quadrant, percent of cells AF647+ / hTcRβ-PerCP+
25 | B1 | 8.05% | 53.3%
26 | B2 | 10.7% | 55.6%
27 | B3 | 12.2% | 61.3%
28 | B4 | 9.79% | 54.8%
29 | B5 | 9.91% | 51.2%
30 | B6 | 8.54% | 57.1%
31 | B7 | 11% | 54.4%

Biological target: T2, human CD3e (T-cell surface glycoprotein …)
Assay: flow cytometry, human PBMC, antibody 0.1 µg/mL, anti-human IgG Fc-Alexa Fluor647 (1:500), anti-hTcRβ-PerCP (1:30)
Procedure: as §1, §2, §3

Row | Binder | upper left quadrant, percent of cells AF647+ / hTcRβ-PerCP- | upper right quadrant, percent of cells AF647+ / hTcRβ-PerCP+
32 | B8 | 11.8% | 54.5%

Biological target: T2, human CD3e (T-cell surface glycoprotein …)
Assay: flow cytometry, human PBMC, antibody 0.01 ug/mL, anti-human IgG Fc-Alexa Fluor647 (1:500), anti-hTcRβ-PerCP (1:30)
Procedure: as §1, §2, §3

Row | Binder | upper left quadrant, percent of cells AF647+ / hTcRβ-PerCP- | upper right quadrant, percent of cells AF647+ / hTcRβ-PerCP+
33 | B1 | 2.42% | 11.6%
34 | B2 | 2.62% | 12.9%
35 | B3 | 2.75% | 15.2%
36 | B4 | 2.66% | 14%
37 | B5 | 2.56% | 12%
38 | B6 | 2.25% | 16%
39 | B7 | 2.68% | 12.5%

Biological target: T4, monkey CD3e (Macaca fascicularis) on PBMC (Macaca fascicularis, UniProt Q95LI5 22-198)
T4 construct: Target on PBMC from Macaca fascicularis; also called mfCD3e; monkey PBMC
Assay: flow cytometry, Macaca fascicularis PBMC, antibody concentration not given, anti-human IgG Fc-Alexa Fluor647 (1:500), anti-hTcRβ-PerCP (1:30)
Procedure: A 96-well plate was prepared. 25 ul of cell suspension was added to each well. Anti-hCD3 antibodies were added to the 96-well plate. The cells and the antibodies were incubated for 15 minutes at 4° C. 185 ul PBS was then added to each well. After centrifuge at 2000 rpm for 5 minutes, the medium was discarded. The samples were washed again. 25 ul of PBS was then added to resuspend cells.
Anti-human IgG Fc-Alexa Fluror647 (1:500) and anti-hTcRβ PerCP (1:30) were then added to each well. The cells and the antibodies were incubated for 15 minutes at 4° C. 185 ul PBS was then added to each well. After centrifuge, the residues were discarded. The samples were washed again. 25 ul of PBS was then added to resuspend cells. […] In contrast, anti-hTcRβ PerCP cannot bind to monkey PBMC.

Row | Binder | upper left quadrant, percent of cells AF647+ / hTcRβ-PerCP- | upper right quadrant, percent of cells AF647+ / hTcRβ-PerCP+
40 | B1 | 44.2% | 3.1%
41 | B2 | 52% | 2.39%
42 | B3 | 45.1% | 1.69%
43 | B4 | 46% | 2.58%
44 | B5 | 68.5% | 3.45%
45 | B6 | 44.9% | 1.49%
46 | B7 | 82.7% | 0.225%
47 | B8 | 86.8% | 9.46%
